In patent publication US20110263454A1, “Methods of Identifying Functional Characteristics of Promoters, Transcription Modifying Proteins and Transcription Modulating Agents” (Salk Institute for Biological Studies, priority 2008, published 2011):

Key:
hMDR1 promoter = assay: NHR-promoter luciferase screen, hMDR1 promoter; assay type: cell-based, human; conditions: for Luc. act., normalized to lacZ / Normalized Luc. act., normalized to control: MDR1 promoter, HR/ligand component; for hMDR1 promoter reporter activity: transcription factor +/- ligand, control = 1.00
Description: (§1) The use, feasibility, and reproducibility of the functional NHR-promoter screen in a 48-well format have been tested validated. Briefly, there were co-expressed 50 ng of each NHR/NHR homodimer or NHR/RXR heterodimer with 100 ng promoter/luciferase construct and 50 ng of LacZ (as a control for transfection efficiency) in CV-1 cells using Fugene HD (Roche) as a transfection reagent (alternatively or additionally, a CMV-YFP construct can be used as a transfection control). Each of the nuclear hormone receptors that were used in these experiments was cloned into a pcDNA3.1 vector and comprised a C-terminally linked V5H6 tag. Twenty-four hours after transfection, appropriate ligands were added, where applicable, (see Table 5 for various ligands and concentrations and after 48 hrs, samples were assayed for luciferase and LacZ activity. To measure for luciferase activity 15 ul of sample was added to 30 ul of luciferase buffer (20 mM tricine, 1.07 mM MgCarbonate, 2.67 mM MgSulfate, 0.1 mM Naz-EDTA, 5 mM DTT, 5 mM ATP, 0.15 mg/ml CoA, 0.5 mM Luciferin), mixed briefly, and run in a Perkin Elmer Victor 5 luminometer. Thus, the functional NHR-promoter screen was used to observe the transcriptional activity of 29 promoters from various physiological pathways including inflammation, lipid and sugar metabolism, cholesterol transport, xenobiotic metabolism, and circadian rhythm.
(§2) The promoters that facilitate transcription of the indicated gene products that were tested using the protocols described herein are listed in the first row of the table. The nuclear hormone receptors and, where applicable, ligands that were assayed for their transcriptional effects on the promoters are listed in the first column of the table. The data represent the luciferase activity of each sample normalized to both the lacZ activity of that sample and to a control, e.g., no NHR or ligand, as customary in the art. As described previously, these normalizations allow the transcriptional activity of each reporter cell to be compared to other samples.
(§3) Tables 7-40 show the transcriptional effects of the hormone receptors, and, where applicable, ligands (orphan receptors are screened without ligand), on each individual promoter. […] The control data of each table are shown in their last rows.

hTNFa promoter = assay: NHR-promoter luciferase screen, hTNFa promoter; assay type: cell-based, human; conditions: for Luc. act., normalized to lacZ / Normalized Luc. act., normalized to control: TNFa promoter, HR component without or with ligand; for hTNFa promoter reporter activity: transcription factor +/- ligand, control = 1.00
Description: as §1, §2, §3

mPer1 promoter = assay: NHR-promoter luciferase screen, mPer1 promoter; assay type: cell-based, mouse; conditions: for Luc. act., normalized to lacZ / Normalized Luc. act., normalized to control: Per1 promoter reporter, co-transfected HR, with or without its ligand; for Normalized Luc. act., normalized to control: relative to control; for luciferase activity normalized to lacZ activity and to a control, mPer1: mPer1 promoter-luciferase, CV-1 cells, NHR +/- ligand, control = 1.00
Description: as §1, §2, §3

mLeptin promoter = assay: NHR-promoter luciferase screen, mLeptin promoter; assay type: cell-based, mouse; conditions: for Luc. act., normalized to lacZ / Normalized Luc. act., normalized to control: Table 7, mLeptin; for Results of assays of transcription factor (+/- ligand) with mLeptin: Table 6d, luciferase activity relative to control (control = 1.00)
Description: as §1, §2, §3

mUCP3 promoter = assay: NHR-promoter luciferase screen, mUCP3 promoter; assay type: cell-based, mouse; conditions: for Normalized Luc. act., normalized to control / Luc. act., normalized to lacZ: mUCP3 promoter reporter; for Normalized Luc. act., normalized to control: HR without or with its ligand, relative to control; for Luc. act., normalized to lacZ: hormone receptor (HR) without or with its ligand; for mUCP3 promoter reporter activity: transcription factor +/- ligand, control = 1.00
Description: as §1, §2, §3

mUCP1 promoter = assay: NHR-promoter luciferase screen, mUCP1 promoter; assay type: cell-based, mouse; conditions: for Luc. act., normalized to lacZ / Normalized Luc. act., normalized to control: mUCP1 promoter reporter, co-transfected HR, with or without its ligand; for Normalized Luc. act., normalized to control: relative to control; for luciferase activity normalized to lacZ activity and to a control, mUCP!: mUCP! promoter-luciferase, CV-1 cells, NHR +/- ligand, control = 1.00
Description: as §1, §2, §3

Row | Molecule | Luc. act., normalized to lacZ (hMDR1 promoter) | Normalized Luc. act., normalized to control (hMDR1 promoter) | hMDR1 promoter reporter activity (hMDR1 promoter) | Luc. act., normalized to lacZ (hTNFa promoter) | Normalized Luc. act., normalized to control (hTNFa promoter) | hTNFa promoter reporter activity (hTNFa promoter) | Luc. act., normalized to lacZ (mPer1 promoter) | Normalized Luc. act., normalized to control (mPer1 promoter) | luciferase activity normalized to lacZ activity and to a control, mPer1 (mPer1 promoter) | Luc. act., normalized to lacZ (mLeptin promoter) | Normalized Luc. act., normalized to control (mLeptin promoter) | Results of assays of transcription factor (+/- ligand) with mLeptin (mLeptin promoter) | Normalized Luc. act., normalized to control (mUCP3 promoter) | Luc. act., normalized to lacZ (mUCP3 promoter) | mUCP3 promoter reporter activity (mUCP3 promoter) | Luc. act., normalized to lacZ (mUCP1 promoter) | Normalized Luc. act., normalized to control (mUCP1 promoter) | luciferase activity normalized to lacZ activity and to a control, mUCP! (mUCP1 promoter)
1 | RARb: Retinoic acid receptor β (NR1B2), nuclear hormone receptor cDNA driver (protein, UniProt P10826 1-455, looked up) Retinoic acid receptor beta: MTTSGHACPVPAVNGHMTHYPATPYPLLFPPVIGGLSLPPLHGLHGHPPPSGCSTPSPATIETQSTSSEELVPSPPSPLPPPRVYKPCFVCQDKSSGYHYGVSACEGCKGFFRRSIQKNMIYTCHRDKNCVINKVTRNRCQYCRLQKCFEVGMSKESVRNDRNKKKKETSKQECTESYEMTAELDDLTEKIRKAHQETFPSLCQLGKYTTNSSADHRVRLDLGLWDKFSELATKCIIKIVEFAKRLPGFTGLTIADQITLLKAACLDILILRICTRYTPEQDTMTFSDGLTLNRTQMHNAGFGPLTDLVFTFANQLLPLEMDDTETGLLSAICLICGDRQDLEEPTKVDKLQEPLLEALKIYIRKRRPSKPHMFPKILMKITDLRSISAKGAERVITLKMEIPGSMPPLIQEMLENSEGHEPLTPSSSGNTAEHSPSISPSSVENSGVSQSPLVQ | 0.3 | 1.0 | 0.97 | 1854.5 | 1.9 | 1.89 | 89.3 | 0.6 | 0.62 | 2.7 | 0.9 | 0.91 | 2.1 | 1.4 | 2.08 | 4.4 | 1.0 | 1.00
2 | RVRa: Rev-Erb α (NR1D1), cDNA driver (protein, UniProt P20393 1-614, looked up) Nuclear receptor subfamily 1 …: MTTLDSNNNTGGVITYIGSSGSSPSRTSPESLYSDNSNGSFQSLTQGCPTYFPPSPTGSLTQDPARSFGSIPPSLSDDGSPSSSSSSSSSSSSFYNGSPPGSLQVAMEDSSRVSPSKSTSNITKLNGMVLLCKVCGDVASGFHYGVHACEGCKGFFRRSIQQNIQYKRCLKNENCSIVRINRNRCQQCRFKKCLSVGMSRDAVRFGRIPKREKQRMLAEMQSAMNLANNQLSSQCPLETSPTQHPTPGPMGPSPPPAPVPSPLVGFSQFPQQLTPPRSPSPEPTVEDVISQVARAHREIFTYAHDKLGSSPGNFNANHASGSPPATTPHRWENQGCPPAPNDNNTLAAQRHNEALNGLRQAPSSYPPTWPPGPAHHSCHQSNSNGHRLCPTHVYAAPEGKAPANSPRQGNSKNVLLACPMNMYPHGRSGRTVQEIWEDFSMSFTPAVREVVEFAKHIPGFRDLSQHDQVTLLKAGTFEVLMVRFASLFNVKDQTVMFLSRTTYSLQELGAMGMGDLLSAMFDFSEKLNSLALTEEELGLFTAVVLVSADRSGMENSASVEQLQETLLRALRALVLKNRPLETSRFTKLLLKLPDLRTLNNMHSEKLLSFRVDAQ | 0.2 | 0.6 | 0.64 | 1069.4 | 1.1 | 1.09 | 98.6 | 0.7 | 0.68 | 2.5 | 0.9 | 0.86 | 1.2 | 0.8 | 1.24 | 3.8 | 0.8 | 0.85
3 | RARg: Retinoic acid receptor γ (NR1B3), nuclear hormone receptor cDNA driver (protein, UniProt P13631 1-454, looked up) Retinoic acid receptor gamma: MATNKERLFAAGALGPGSGYPGAGFPFAFPGALRGSPPFEMLSPSFRGLGQPDLPKEMASLSVETQSTSSEEMVPSSPSPPPPPRVYKPCFVCNDKSSGYHYGVSSCEGCKGFFRRSIQKNMVYTCHRDKNCIINKVTRNRCQYCRLQKCFEVGMSKEAVRNDRNKKKKEVKEEGSPDSYELSPQLEELITKVSKAHQETFPSLCQLGKYTTNSSADHRVQLDLGLWDKFSELATKCIIKIVEFAKRLPGFTGLSIADQITLLKAACLDILMLRICTRYTPEQDTMTFSDGLTLNRTQMHNAGFGPLTDLVFAFAGQLLPLEMDDTETGLLSAICLICGDRMDLEEPEKVDKLQEPLLEALRLYARRRRPSQPYMFPRMLMKITDLRGISTKGAERAITLKMEIPGPMPPLIREMLENPEMFEDDSSQPGPHPNASSEDEVPGGQGKGGLKSPA | 0.3 | 0.8 | 0.85 | 1458.6 | 1.5 | 1.48 | 120.3 | 0.8 | 0.84 | 3.6 | 1.2 | 1.21 | 2.0 | 1.3 | 1.98 | 5.0 | 1.1 | 1.13
4 | RVRb: Rev-Erb β (NR1D2, alternative name RVR), cDNA driver (protein, UniProt Q14995 1-579, looked up) Nuclear receptor subfamily 1 …: MEVNAGGVIAYISSSSSASSPASCHSEGSENSFQSSSSSVPSSPNSSNSDTNGNPKNGDLANIEGILKNDRIDCSMKTSKSSAPGMTKSHSGVTKFSGMVLLCKVCGDVASGFHYGVHACEGCKGFFRRSIQQNIQYKKCLKNENCSIMRMNRNRCQQCRFKKCLSVGMSRDAVRFGRIPKREKQRMLIEMQSAMKTMMNSQFSGHLQNDTLVEHHEQTALPAQEQLRPKPQLEQENIKSSSPPSSDFAKEEVIGMVTRAHKDTFMYNQEQQENSAESMQPQRGERIPKNMEQYNLNHDHCGNGLSSHFPCSESQQHLNGQFKGRNIMHYPNGHAICIANGHCMNFSNAYTQRVCDRVPIDGFSQNENKNSYLCNTGGRMHLVCPMSKSPYVDPHKSGHEIWEEFSMSFTPAVKEVVEFAKRIPGFRDLSQHDQVNLLKAGTFEVLMVRFASLFDAKERTVTFLSGKKYSVDDLHSMGAGDLLNSMFEFSEKLNALQLSDEEMSLFTAVVLVSADRSGIENVNSVEALQETLIRALRTLIMKNHPNEASIFTKLLLKLPDLRSLNNMHSEELLAFKVHP | 0.3 | 0.9 | 0.94 | 1017.6 | 1.0 | 1.04 | 118.3 | 0.8 | 0.82 | 4.4 | 1.5 | 1.50 | 1.9 | 1.3 | 1.91 | 4.3 | 1.0 | 0.96
5 | RARa: Retinoic acid receptor α (NR1B1), nuclear hormone receptor cDNA driver (protein, UniProt P10276 1-462, looked up) Retinoic acid receptor alpha: MASNSSSCPTPGGGHLNGYPVPPYAFFFPPMLGGLSPPGALTTLQHQLPVSGYSTPSPATIETQSSSSEEIVPSPPSPPPLPRIYKPCFVCQDKSSGYHYGVSACEGCKGFFRRSIQKNMVYTCHRDKNCIINKVTRNRCQYCRLQKCFEVGMSKESVRNDRNKKKKEVPKPECSESYTLTPEVGELIEKVRKAHQETFPALCQLGKYTTNNSSEQRVSLDIDLWDKFSELSTKCIIKTVEFAKQLPGFTTLTIADQITLLKAACLDILILRICTRYTPEQDTMTFSDGLTLNRTQMHNAGFGPLTDLVFAFANQLLPLEMDDAETGLLSAICLICGDRQDLEQPDRVDMLQEPLLEALKVYVRKRRPSRPHMFPKMLMKITDLRSISAKGAERVITLKMEIPGSMPPLIQEMLENSEGLDTLSGQPGGGGRDGGGLAPPPGSCSPSLSPSSNRSSPATHSP | 0.2 | 0.7 | 0.67 | 1363.2 | 1.4 | 1.39 | 85.4 | 0.6 | 0.59 | 2.4 | 0.8 | 0.82 | 1.8 | 1.2 | 1.76 | 2.8 | 0.6 | 0.63
